# Target: mouse recombinant His-calmodulin, calcium-bound (mouse), P0DP26
binder,measurement,value
"INLKALAALAKKIL (modifications not checked) [Mastoparan, P01514 1-14]",Kd,1.2 nM
